Like-named read-outs stand apart in the source and are kept apart here. Each block holds one molecule with its values, some of them ahead of it.
How the values were obtained:
[1] = biological target: human isoleucine zipper-CD40L (IZ-hCD40L) (human) (UniProt P29965); experiment: cell-based or functional assay
[2] = biological target: T1, human CD40L, membrane-bound on cells (human, UniProt P29965 1-261); experiment: cell-based or functional assay
T1 sequence: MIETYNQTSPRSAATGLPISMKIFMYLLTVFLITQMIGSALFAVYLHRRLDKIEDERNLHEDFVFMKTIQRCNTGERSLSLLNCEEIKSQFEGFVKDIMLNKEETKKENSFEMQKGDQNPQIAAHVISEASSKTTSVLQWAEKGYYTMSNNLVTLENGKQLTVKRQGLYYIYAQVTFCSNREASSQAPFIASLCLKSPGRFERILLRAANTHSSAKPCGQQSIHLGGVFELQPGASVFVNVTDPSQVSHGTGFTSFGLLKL

mouse CD40L (mouse) = mouse CD40L (mouse) (UniProt P27548); experiment: cell-based or functional assay
[3] = biological target: cynomolgus monkey CD40L on cells (cynomolgus monkey) (UniProt G7Q1T4); experiment: in vivo receptor occupancy on monkey PBMC, 20 mg/kg IV, 48 h post-dose
[4] = biological target: human CD64 (FcγRI) (human) (UniProt P12314); experiment: SPR; captured on biot-IZ-hCD40L surface, soluble FcR as analyte; pH 7.1
[5] = biological target: human CD16a (FcγRIIIa) (human) (UniProt P08637); experiment: as above
human FcRn (human) = human FcRn (human) (UniProt P55899); experiment: SPR; captured on biot-IZ-hCD40L surface, soluble FcR as analyte; pH 6
[6] = biological target: cynomolgus monkey CD40L on cells (cynomolgus monkey) (UniProt G7Q1T4); experiment: in vivo receptor occupancy on monkey PBMC, 20 mg/kg IV, through 1032 h
[7] = biological target: human CD32a (FcγRIIa), soluble (human) (UniProt P12318); experiment: SPR; biphasic binding, steady state fit to the dominant binding event; pH 7.1
[8] = biological target: T2, human isoleucine zipper-CD40L (IZ-hCD40L) (human, UniProt P29965 113-261); experiment: cell-based or functional assay
T2 sequence: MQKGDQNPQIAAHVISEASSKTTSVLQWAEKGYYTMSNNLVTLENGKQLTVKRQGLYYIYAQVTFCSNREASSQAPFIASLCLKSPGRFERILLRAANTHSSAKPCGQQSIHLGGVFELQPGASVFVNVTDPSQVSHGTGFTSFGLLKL

[9] = biological target: T1, human CD40L, membrane-bound on cells; experiment: cell-based or functional assay; remark: listed apart in the source
[10] = biological target: T3, biotinylated IZ-hCD40L (biot-IZ-hCD40L) (human, UniProt P29965 113-261, biotinylated); experiment: SPR (Biacore), 25 C, 1:1 Langmuir; monovalent dAb
T3 construct: biotinylated version of IZ-hCD40L captured on streptavidin chip; also called biotinylated CD40L; not shown: N-terminal isoleucine zipper motif
T3 sequence: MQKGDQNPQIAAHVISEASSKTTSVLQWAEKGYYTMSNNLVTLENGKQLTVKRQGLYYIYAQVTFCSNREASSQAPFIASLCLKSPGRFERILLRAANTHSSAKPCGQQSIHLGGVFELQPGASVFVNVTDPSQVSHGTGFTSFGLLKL
Source text: The SPR experiments utilized a hCD40L construct containing an N-terminal isoleucine zipper motif (IZ-hCD40L) which facilitates the specific assembly of the CD40L molecule into the native trimeric form.

[11] = biological target: T4, human CD40L monomer triple mutant (T211E, S222Y, H224K, [108-261]) (human, UniProt P29965 108-261); experiment: SPR; dAb-CT-long captured on anti-human IgG Fc surface, CD40L monomer as analyte
T4 construct: also called monomeric human CD40L
T4 chain: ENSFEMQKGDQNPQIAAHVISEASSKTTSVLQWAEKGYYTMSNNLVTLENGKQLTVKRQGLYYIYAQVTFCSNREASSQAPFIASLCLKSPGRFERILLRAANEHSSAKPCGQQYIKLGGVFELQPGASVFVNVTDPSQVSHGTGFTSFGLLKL

[12] = biological target: T2, human isoleucine zipper-CD40L …; experiment: cell-based or functional assay; remark: listed apart in the source
[13] = biological target: T1, human CD40L, membrane-bound on cells; experiment: cell-based or functional assay; remark: listed apart in the source

Chain of mouse CD40L (mouse) (P27548 112-260 limits assumed): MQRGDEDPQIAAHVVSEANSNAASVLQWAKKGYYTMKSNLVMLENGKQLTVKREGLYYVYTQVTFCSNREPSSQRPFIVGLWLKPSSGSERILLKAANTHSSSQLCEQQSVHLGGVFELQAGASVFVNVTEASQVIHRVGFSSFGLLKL
Chain of human CD64 (FcγRI) (human) (P12314 16-288 limits assumed): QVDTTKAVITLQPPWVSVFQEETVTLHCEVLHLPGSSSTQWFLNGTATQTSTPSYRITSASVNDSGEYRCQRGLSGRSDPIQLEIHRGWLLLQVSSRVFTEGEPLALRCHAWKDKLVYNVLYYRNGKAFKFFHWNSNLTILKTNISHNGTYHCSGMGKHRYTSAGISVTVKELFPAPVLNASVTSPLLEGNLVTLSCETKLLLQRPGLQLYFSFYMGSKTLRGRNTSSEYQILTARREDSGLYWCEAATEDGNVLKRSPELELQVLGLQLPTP
Chain of human CD32a (FcγRIIa), soluble (human) (P12318 36-218 limits assumed): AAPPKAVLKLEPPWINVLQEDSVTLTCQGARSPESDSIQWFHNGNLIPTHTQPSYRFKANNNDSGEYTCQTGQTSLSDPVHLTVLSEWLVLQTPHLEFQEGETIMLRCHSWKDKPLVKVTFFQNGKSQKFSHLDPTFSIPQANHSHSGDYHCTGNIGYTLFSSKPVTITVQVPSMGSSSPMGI
Chain of human CD16a (FcγRIIIa) (human) (P08637 17-208 limits assumed): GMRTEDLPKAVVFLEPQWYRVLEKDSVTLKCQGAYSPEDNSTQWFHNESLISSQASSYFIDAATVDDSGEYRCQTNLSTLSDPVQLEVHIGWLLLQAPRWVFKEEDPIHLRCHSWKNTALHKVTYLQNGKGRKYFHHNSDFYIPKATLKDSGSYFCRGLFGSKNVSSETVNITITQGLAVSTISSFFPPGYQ

Molecule: MR-1 (antibody)
CHO-CD40L B cell Assay EC50 (mouse CD40L (mouse)): 0.6 nM | CHO-CD40L DC Assay IL-6 EC50 (mouse CD40L (mouse)): 0.6 nM | Trimer B cell Assay EC50 (mouse CD40L (mouse)): 1.7 nM

Molecule: 5c8-IgG1 (antibody)
mean peak receptor occupancy [3]: 100% | Kd [4]: < 0.05 nM | Kd [5]: 240 nM | Kd (human FcRn (human)): 590 nM | receptor occupancy [6]: > 97% | Kd [7]: 100 nM

B2: 2h572-634-CT Long Fc (Fc fusion)
chain: EVQLLESGGGLVQPGGSLRLSCAASGFTFNWELMGWARQAPGKGLEWVSGIEGPGDVTYYADSVKGRFTISRDNSKNTLYLQMNSLRAEDTAVYYCVKVGKDSRSDYRGQGTLVTVSS
notes: not shown: linker and CT Long Fc (CT-L2)
binding result [11]: no binding | hIZCD40L-driven Human B Cell Proliferation EC50 [12]: 2 nM | CHO-hCD40L-driven DC Activation IL-12 EC50 [13]: 1.5 nM | CHO-hCD40L-driven Human B Cell Proliferation EC50 [13]: 1 nM | T-B cell MLR EC50 [13]: 0.162 nM | T-B cell MLR IL-6 EC50 [13]: 0.13 nM

Second part, the molecule after the results:

Trimer B cell Assay EC50 [1]: 8 nM | CHO-CD40L B cell Assay EC50 [2]: 2 nM | CHO-CD40L DC Assay IL-12 EC50 [2]: 2 nM | T-B MLR EC50 [2]: 0.54 nM | T-B MLR IL-6 EC50 [2]: 0.23 nM
Molecule: 5c8 mAb (antibody)

hIZCD40L-driven Human B Cell Proliferation EC50 [8]: 20 nM | CHO-hCD40L-driven DC Activation IL-12 EC50 [9]: 53 nM | Kd [10]: 7.8 nM | koff [10]: 0.0081 s⁻¹ | kon [10]: 1e+06 M⁻¹ s⁻¹
B1: BMS2h-572-633 (other)
VH: EVQLLESGGGLVQPGGSLRLSCAASGFTFNWELMGWARQAPGKGLEWVSGIEGPGDVTYYADSVKGRFTISRDNSKNTLYLQMNSLRAEDTAVYYCVKVGKDAKSDYRGQGTLVTVSS
notes: VH dAb, monovalent
